Results: the nanobody polyreactivity screen of Harvey et al. (2022)

Test: yeast display, Sf9 membrane polyspecificity reagent, FACS + sequencing; frameworks hold sequencing errors
How it was run: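 Galactose-induced (36–48 hours) yeast carrying a synthetic nanobody display library were exposed to 10% biotinylated, detergent-solubilized Sf9 membrane reagent at 4 °C for 1 hour. FACS followed streptavidin microbead enrichment, using low and high (top ~1%) gates for expression (anti-HA) and reagent binding (streptavidin). Colony PCR, MiSeq 2 × 250 sequencing and CDR-length filtering followed. Labels for polyreactivity reflect the gate of origin.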

Sequence	polyreactivity (PSR sort gate)
QVQHVESRGGLVQAGGSLRLSCADSGSIFRAYAKGWYIQAPGKERELVADISRSGGSTYYADSVKGRFTISRDNANNTVYLQMNRLNPEDTAVYYCAAVFYLYSNLYGEYEYWGQGTQVTLSS	low polyreactivity
QVQLVESGGGLVQAGGSLRLSCAASGFIFSVNTMGWYRQAPGKERELVAAISSSSGRTYYADSVKGRFTISRDNAKNTVYLQMNSLKPEDTAVYYCAVLYRWFGAYETYDYLGQGTQVTVSS	high polyreactivity
QVQLVESGGGLVQAGGSLRLSCAASGRIISVYAMGWYRQAPGKERELVATITGGNTNYADSVKGRFTISRDNAKNTVYLQMNSLKPEDTAVYYCAKQFLPSGVYYEYDSWGQGTQVTVSS	low polyreactivity
QVQLVESGGGLVQAVGSLRLSCAASGRTFGNYAMGWYRQAPGKERELVAAISRSGASTYYADSVKGRFTISRDNAKNSVYLQMNSLKPEDTAVYYCAARVLKPFKYGYWGQGTQVTVSS	high polyreactivity
QVQLVESGGGLVQAGGSLRLSCAASGRTFVWNAMGWYRQAPGKERELVAAITSGGSTNYADSVKGRFTISRDNAKNTVYLQMNSLKPEDTAVYYCAADWQYSPRMDYWGQGTQVTVSS	low polyreactivity
QVQLVESGGGLVQAGGSLRLICAASGRIFNRYAMGWYRQAPGNERELVAAITWSGDRTNYADSVKGRFTISRDNAKNTVYLLMNSLKPEDTAVYYCAAADGIIESDYWGQGTQVTVSS	low polyreactivity
QVQLGESGGGLLQAGGSVRLSCAASGRTITANAMGLYRQAPGKERELFATISTRGGRTYYADSVKGRFTISRDNSKNTVYLQMHSLKPEETAVFYGAFTIRAKYTLKEDYWGQGTQVTVSS	low polyreactivity
QVQLVESGGGLVQAGGSLRLSCSASGSIFYVYAMGWYRPAPGKERELVAAITSSGTTNYADSVKGRFTISRDNAKNTVYLQMNSLKPEDTAVYYCAADPDSGQVPFDYWVQGTQVTVSS	low polyreactivity
QVQLVESGGGLVQAGGSLRLSCAASGFIFEDYAMGWYRQAPGKERELVAAITWRGGRTYYADSVKGRFTISRDNAKNTVYLQMNSLKPEDTAVYYCRPQVYSYASRYGYWGQGTQVTVLS	low polyreactivity
QVHLVESGGGLVQAGGSLRLSCAASGSTFEQYAMGWYIQAPGKERELVAAISGSGTRTYYADSVKGRFTISRDNAKNTVYLQMNSLKPEDTAVYSCRTGSGEYDYWGQGTQVTVSS	high polyreactivity
QVQLVESGGGLVQAGGSLRLSCAASGRIFSGNAMGWYRQAPGKERELVAAISRGGSTDYADSVKGRFTISRDNAMNTVYLQMNSLKPEDTAVYYCAARVNGKRRRYDYWGQGTQVTVSS	high polyreactivity
QVQLVESGGGLVQAGGSLRVSCAASGGILRGYAMGWYRQARGKEWELVAAISRGGRTNYADSVKGRFTISRDNAKNTVYLQMNSLKPEDTAVYYCAKRYARGENDYWGQGTQVTVSS	high polyreactivity
QVQLVESGGGLDQAGGSLRLSCAASGYTYGYYAMGWYRQAPGKERELVATISYSGGTTYYADSVRGRFTISRDNAKNTVYLQMNSLKPEDTAVYYCNARGYKRLYGYWVQGTQVTVSS	high polyreactivity
QVQLVESGGGLVQAGGSLRLSCAASGSIFSTYTMGWYRQAPGTERELVAAITRSGGSTYNADSVKGRFTISRDNAKNTVYLQMNSLKPEDTAVYYCAARWKFPSSFYYWGQGTQVTVSS	high polyreactivity
QVQLVESGGGLVQAGGSLRLSCAASGSIFRSYALGGYRQAPGKERELVASISRRGGSTYYADSVKGRFTISRDNAKNTVYLQMNSLKPQDTAVYYCAAVRYNSRGSTTPSEMYYWGQGTQVTVSS	low polyreactivity
QVQLVESGGGLVQAGGSIRLSCAASGSTFYSYAMGWYRQATGKERELVAAISSGGSTNYADSVKGRFTISRDNAKNTVYLQMNSLKPEDTAVYYCAVDYPVIVYQRGYWGQGTQVTVSS	low polyreactivity
QVQLVESGGGVVQAGGSLRLSCAASGITLAWYAMGWSRQAPGKERELVAAINSGGSTYYADSVKGRFTISRDTAKNTVYLQMNSLKPEDTAVYYCNTDDDSSSTGYYSWGQGTQVTVSS	low polyreactivity
QVQLVESGGGLVQAGGSLRLSSAASGRIFYRNAMGWYRQAPGKEREMVAAIRGSGGRTYYADSVKGRFTISRDNAKYTVYLQMISLKPEDTAVYYCAAYGYYVEHPRGLSGPYDDDYWGQGTQVTVSS	low polyreactivity
QVQLVESGGGLVQAGGSLRLSCASSGSIFYTYAMGWYRQAPGKERELVAAISRSGGSTYYADSVKGRFTISRDNAKNTVYLQMNSLKPEDTAVYYCAAVSYRGRGYWGQGTQVTVSS	high polyreactivity
QVQLVESGRGLVQAGGSLRLSCAASGRIFYNYAMGGYRQAPGKERELVAAISSSGGSTYFADSVKGRFTISRDNAKNTVYLQMNSLKPEDTAVYYCAVRKQYSGRYYRAYDYWGQGTQVTVSW	high polyreactivity
QVQLEESGGGLVQAGGSLRLSCAASGSIFVYYRMGWYRQAPGKERELVAAISSGGSTHYADSVKGRFTISRDNAKNTVYLQMNSLKPEDTAFYYRNDRAYGNGMGTGYFGKHRYDYWGQGTQVTVSS	low polyreactivity
QVQLVESGGGLVQAGGSLRLSCAASGSTFVPNAMGWYRQAPGKERELVAAITVDGDDTYYADSVKGRFTISRDNAKNTVYLQMNSLKPEDTAVYYCAAEQDPWTSRYVFFASRYDYWGQGTQVTVSS	low polyreactivity

Sequence	polyreactivity (PSR sort gate)
QVQLVESGGGLVEAGGSLRLICAASGSIFYFYGMGWYRQAPGKEREVVAAITYSGGSTYYADSVKGRYTISRDNAKNTVDLQMNSLIPEDTAVYYCNADSVLELYWKMDYWGQGTQVTVSS	low polyreactivity
QVQLVETGGGLVQAGGSLSLSCAASGRTFGRYAMGWYRQAPGKERELVAAITWSGGSTYYADSVKGRFTISRDNAKNTVYLQMNSLKPEDTAVYYCAASGYPIYHDDYWGQGTQVTVSS	low polyreactivity
QVQLVESGGGLVQAGGTLRLSCAASGSTFYSYAMGWYRQAPGKERELVAAISGRGGTTYYADSVKGRFTISRDNAKNTVYLQMNSLKPEDTAVYYCAAEGWDWWTDDDYWGQGTQVTVSS	high polyreactivity
QVQLVESGGGLVQAGGSLRLSCAASGSIFSVYDMGWYRQAPGKERELVAAISRSGGSTYYADSVKGRFTISRDNAKNTVYLQRNSLKPEDTAVYYCNAVRRTGGHGDYWGQGTQVTVSS	high polyreactivity
QVQLVESGGGLVQAGGSLRLSCAASGSIFGRNAMGWYRQAPGKERELVAVISKRSGNTYYADSVKGRFTISRDNAKNTVYLQMNSLKPEDTAVYYCNAVDQKLLRYDYGGQGTQVTVSS	high polyreactivity
QVQLVESGGGLVQAGGSLRLSCAASGRTFGVYAMGWYRQAPGKERELVAAITWSGGSTYYADSVKGRFTISRDNAKNTVYLQMNSLKPEDTAVYYCAADNWYKKQKRPSAYDYWGQGTQVTVSS	high polyreactivity
QVQLVESGGGLVQAGGSLRLSCAASGRIITTYAMGRYRQAPGKERELVAPITSDGRTYYADSVKVRFTISRDNATHSVYLQMYSMKPEDTAVYYCNAAGRYAFPFGYNYWGQGTQVTVSS	high polyreactivity
QVQLVESGGGLVQAGGSLRLSCAASGRTFWSYAMGWYRQAPGKERELVATITGRGGSTYYADSVKGRFTISRDNAKNTVYLQMNSLKPEDTAVYYCARSQYSRSPSRMGYWGQGTQVTVSS	high polyreactivity
QVQLVESGGGLVQAGGSLRLSCAASGSIFYHNAMGWYRQAPGKERELVAAITWSGSTTYYADSVKGRFTISRDNAKNTVYLQMNSLKPEDTAVYYCNAGNRHGHYDYWGQGTQVTVSS	low polyreactivity
QVQLVESGGGLVQAGGSLRLSCAASGFIIYFYAMGWYRQAPGKERELVAAINYPGDSTYYADSVKGRFTISRDNAKNTVYLQMNSLKPEDTAVYYCNKVLYNKWPYVTLSAFPTVGYWGQGTQVTVSS	high polyreactivity
QVQLVESGGGLVQAGGSLRLSCAASGFTFGSYVMGWYRQAPGKERELVADISIRGGSTYYADSVKGRFTISRDNAKNTVYLQMHSLKPEDTAVYDCNADPAFYYWEGIVGGADYDYWGQGTQVTVSS	low polyreactivity
QVQHVESGGGLVQARGSLRLSCAASGSIFWYNAMGWYRQAPGTVRELVAAINWSGGSTFYADSVKGRFTISRDNAKNTVYLQMNSLKPEDTAVDYCAADDWYTGYDYWGQGTQVTVSS	high polyreactivity
QVQLVESGGGLVQAGGSLRLSCAASGSFFASYSMGWYRQAPAKERELVAAITYSGSRTYYADSVKGRFTISRDNAKNTVYLQMNSLKPEDSAVYYCNADYYWYPYEDDYWGQGTQVTVSS	low polyreactivity
QVQLVESGGGLVQAGGSLRLSCAASGFIFYKNAMGWYRQAPGKERELVAISSSGGSTYYADSVKGRFTISRDNAKNSVYLQMNSLKPEDTAVYYCADRSRRYRGGYWGQGTQVTVSS	high polyreactivity
QVQLVESGGGLVQAGGSLRLSCAASGSIFQDYAMGWSRQAPGKERELVAVITRGGSKYYADSVKGRFTISRDNAKNTVYLQMNSLKPEDTAVYYCNTRRGRGGKYDYWGHGTQVTVSS	low polyreactivity
QVQLVESGGGLVQAGGSLRLSCAASGSIFSDNVMGWYRQAPGKERELVAAIRDGDTTNYADSVKGRFTISRDNAKNTVYLQMNCLKPEDTAVYYCAAVQASSPDYSYAYLDGDRDYWGQGTQVTVSS	low polyreactivity
QVQLVESGGCLVQAGGSLRLSCAASGITFGRNTMGWSRQAPGKERELVAAIDSGGNTYADSVKGRFTISRDNAKNTVYLQMNSLKPEDTAVYYCAVDGGEFSSYGYWVQGTQVTVSS	low polyreactivity
QVQLVESGGGLVQAGGSLRLSCAASGRTFRRNAMGWYRQAPGKERELVAAISFSAGRTYYADSVKGRFTISRDNAKNTVYLQMNSLKPEDTAVYYCNALRQDTGHYPYDYWGQGTQVTVSS	low polyreactivity
QVQLEESGGGLVQAGGSLRLSCAASGSTFTGYAMGWYRQAPGKERELVAAIPISGGRTFYADSVKGRFTISRDNAKNTVYLQMNSLKPEDTAFYYCAAYLRGSKYSFDYWGQGTQVTVSS	high polyreactivity
QVQLVESGGGLVQAGGSLRLSCAASGRTFDDYAMGWYIQAPGKERELVAGIRWSVGNTDYADSVKGRFTISRDNAKNTVYLQMNSLKPEDTAVYYCNARPFLTVLYLFYGNNYDYWGQGTQVTVSS	low polyreactivity
QVQHLETGGGLDQAGGSLRLSCAASVRTFGANAMAWYRQAPGNERALVAAITGRGGSTYYADSVKGRFTFSRDNAKNTVYLQMNSLKPEDTAVYYCAKPFKRGYGYDYWGQGTQVTVSS	low polyreactivity
